The values below come from patent publication US20260274993A1.

In experiment [1] the target is VH4-34 endogenously expressed by cell line HBL-1. As to the kind of experiment: flow cytometry, EC50 of % parent (APC), HBL-1 cells endogenously expressing VH4-34; curve in FIG. 5A rises to about 57 % at Log M about -7.2 without a plateau. Background: Flow cytometry measures light scatter and fluorescence of single cells or particles in a stream.
In experiment [2] the target is VH4-34 endogenously expressed by cell line GA-10. As to the kind of experiment: flow cytometry, EC50 of % parent (APC), GA-10 cells endogenously expressing VH4-34; curve in FIG. 5A rises to about 66 % at Log M about -7.2 without a plateau.

B1: D011-1E11-5T2.IgG2a (antibody, V domains shown)
VH: QVQLVQSGAEVKKPGASMKVSCKASGYSFTGSTMNWVRQAPGQGLEWMGWINPYNGGTNYAQKFQGRVTMTRDTSISTAYMELSRLRSDDTAVYYCASRGKNGYDGRDFDCWGQGTLVTVSS
VL: EIVLTQSPATLSLSPGERATLSCKSTKSLLNSGGFSYLDWYQQKPGQAPRLLIYLVSNRFTGIPARFSGSGSGTDFTLTISSLEPEDFAVYYCFQSNYFPFTFGQGTKLEIKR
As usually defined, the EC50 is the concentration giving half of the maximal effect. On to B1, for which the figures for the concentration giving a half-maximal response (EC50) in experiment [1] and in experiment [2] were 240 nM and 1.52 nM, respectively.
